This is an account of results in patent US20160186238A1.

The test has as its target trypsin (bovine) (UniProt P00760). Put plainly: trypsin activity inhibition, fluorogenic substrate Z-Arg-AMC, fit of activity vs inhibitor concentration.

trypsin (bovine), sequence (P00760 24-246): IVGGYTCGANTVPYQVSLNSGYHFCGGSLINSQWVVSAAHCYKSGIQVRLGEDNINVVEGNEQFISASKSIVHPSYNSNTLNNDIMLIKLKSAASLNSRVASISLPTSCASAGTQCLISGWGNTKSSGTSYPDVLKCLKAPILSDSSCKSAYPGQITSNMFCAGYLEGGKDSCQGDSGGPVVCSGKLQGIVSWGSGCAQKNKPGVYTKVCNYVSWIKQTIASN

Broadly, the Ki is a dissociation constant, usually derived from enzyme kinetics or from competition with a known ligand. antipain (peptide) had a Ki of 39.5 nM.
